Data on 23 molecules can be found in US20240092930A1 (MABWELL SHANGHAI BIOSCIENCE, published 2024).

Assay [1] has as its target T1, recombinant human Trop-2-his protein (ACCESSION NO.: NP_002344.2, AA 1-274) (human, UniProt P09758 27-274).
T1 construct: range 27-274; also called recombinant human Trop-2 protein; recombinant human Trop-2 extracellular domain; not shown: his tag
T1 sequence (looked up): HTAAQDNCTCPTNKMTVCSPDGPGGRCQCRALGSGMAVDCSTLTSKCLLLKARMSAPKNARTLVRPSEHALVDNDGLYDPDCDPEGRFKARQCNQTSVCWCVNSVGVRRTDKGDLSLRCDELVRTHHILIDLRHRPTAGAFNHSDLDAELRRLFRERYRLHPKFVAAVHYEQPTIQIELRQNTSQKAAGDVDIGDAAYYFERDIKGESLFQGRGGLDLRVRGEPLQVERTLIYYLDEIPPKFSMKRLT
Briefly: ELISA, coated Trop-2-his 0.2 µg/ml. As for the experimental part: Plates were coated with recombinant human Trop-2-his protein (ACCESSION NO.: NP_002344.2, AA 1-274) at a concentration of 0.2 μg/ml overnight at 4° C. and then blocked with 5% BSA for 60 min in a constant temperature incubator at 37° C. Chimeric antibodies ch3-11, ch4-3, ch17-1, ch11-4, and ch23-12 and control antibody Sacituzumab (serial dilutions of 8 concentrations in total obtained through 3-fold serially diluting a solution with an initial concentration of 2 μg/ml) were added into the plates which were then incubated in a constant temperature incubator at 37° C. for 60 min. The plates were washed with PBST 4 times, and 1:5000 dilution of HRP-anti-human Fc (Cat.: 109-035-098, Jackson ImmunoResearch) was added into the plates for reaction for 45 min. TMB (Cat.: ME142, GalaxyBio, Beijing) substrate was added for color development for 15 min, and then 2M HCl was added to stop reaction. Absorbances at 450 nm and at 630 nm (as reference wavelength) were read, and A450 nm-630 nm values of the wells in the plates were recorded.

For assay [2], the target named is T2, human Trop-2 on the surface of cells (CHO/Trop-2 cells; BxPC-3 cells; NCI-N87 cells) (human, UniProt P09758 27-323).
T2 construct: whole, on cells; One molecule for all cell lines; the cell line is named under assay or readout; also called Trop-2 on the surface of CHO cells; recombinant human Trop-2 protein on the surface of CHO cells
T2 sequence (looked up): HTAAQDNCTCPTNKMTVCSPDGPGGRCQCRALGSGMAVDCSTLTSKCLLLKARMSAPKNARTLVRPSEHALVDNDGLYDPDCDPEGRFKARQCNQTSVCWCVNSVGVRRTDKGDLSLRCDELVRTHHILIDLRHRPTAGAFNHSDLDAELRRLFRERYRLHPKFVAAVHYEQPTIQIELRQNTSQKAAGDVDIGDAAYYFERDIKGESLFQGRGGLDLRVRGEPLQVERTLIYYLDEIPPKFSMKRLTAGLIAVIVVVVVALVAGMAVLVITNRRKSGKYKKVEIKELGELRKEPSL
Briefly: FACS, CHO/Trop-2 cells. As for the experimental part: Suspensions of CHO cells recombinantly expressing human Trop-2 (CHO/Trop-2 cells) were incubated with chimeric antibodies ch3-11, ch4-3, ch17-1, ch11-4, and ch23-12 (dilutions at concentrations of 30 μg/ml and 10 μg/ml, and serial dilutions of 9 concentrations obtained through 3-fold serially diluting a solution with an initial concentration of 5 μg/ml, 11 concentrations in total) for 30 min at 37° C. Controls as follows were set: (1) Positive Control (PC): control antibody Sacituzumab; (2) Negative Control (NC): IgG1 isotype control antibody NC-IgG1. The cells were washed 3 times with PBS, and 1:100 dilution of goat anti-human IgG-FITC (Cat.: F9512, Sigma) was added into the cell which then were incubated for 30 min. Then the cells were washed 3 times with PBS again, and the Mean Fluorescence Intensity (MFI) of the cells was measured by a flow cytometer (model B49007AD, SNAW31211, BECKMAN COULTER) to detect binding ability of the chimeric antibodies to human Trop-2 on the surface of CHO cells.

The target of assay [3] is T2, human Trop-2 on the surface of cells …. Briefly: cell-based or functional assay.
Assay [4] has as its target T1, recombinant human Trop-2-his protein …. Briefly: BLI, antibody on AHC sensor, Trop-2-his 60 nM. As for the experimental part: (§1) 5-6 days after cell transfection, culture supernatants were purified through ProA affinity chromatography column to obtain different humanized antibodies. Affinities of the obtained antibodies were determined by an assay including capturing Fc fragments of the antibodies with anti-human IgG Fc capture (AHC) biosensors using Octet QKe system instrument from Fortebio. For the assay, each of the humanized antibodies and control antibody Sacituzumab was diluted to 4 μg/ml in PBS, and was allowed to flow through the surface of an AHC biosensor (Cat.: 18-0015, PALL) for 120 s. Recombinant human Trop-2-his protein (ACCESSION NO.: NP_002344.2, AA 1-274) was used as a mobile phase, and its concentration was 60 nM. The binding time was 100 s and the dissociation time was 300 s. When the assay was finished, data from which the response values of blank control had been deducted were fitted to a 1:1 Langmuir binding model using software, and then kinetic constants for antigen-antibody binding were calculated.
Affinities of the antibodies obtained from the combinations of mutants of murine antibody 23-12, chimeric antibody ch4-3 and control antibody Sacituzumab to recombinant human Trop-2-his protein were determined by ForteBio (Table 8).

The target is the same in assay [5]. Briefly: BLI, antibody on AHC sensor, Trop-2-his 60 nM. As for the experimental part:
as §1
Affinities of the antibodies obtained from the combinations of mutants of murine antibody 11-4, chimeric antibody ch11-4 and control antibody Sacituzumab to recombinant human Trop-2-his protein were determined by ForteBio (Table 11).
The source holds these as a separate data set.

Changes are numbered by the printed parent chain. Where two headings read alike, the source gives them in different places.

B1: chimeric antibody ch3-11 (antibody, human IgG1, V domains shown)
VH: QVQLQQPGAELVKPGSSVKLSCKASGYTFTSYWMYWVKQRPGQGLEWIGEINPSNGRTNYNEKFKSKATLTVDKSSSTAYMQFSSLTSEDSAVYYCTREGHNYDGSLGAMDHWGQGTSVTVSS
VL: DVVVTQTPLSLPVSFGDQVSISCRSSQSLTNSYGNTFLSWYLHKPGQSPQLLLYGISNRFSGVPDRFSGSGSGTDFTLKINTIKPEDLGMYYCFQSTHQPYTFGGGTKLEIK
B1: the EC50 in assay [1] amounted to 0.315 nM. The same molecule yielded a half-maximal effective concentration (EC50) in assay [2] of 0.993 nM. Besides, in assay [3], the “Internalization percentage (%), 1 h, BxPC-3 cells, FACS” value was determined as 1.12%; the “Internalization percentage (%), 3 h, BxPC-3 cells, FACS” value is -5.13%; the “Internalization percentage (%), 5 h, BxPC-3 cells, FACS” value is -8.48%.

B2: h4-3-20 (antibody, human IgG1, kappa, V domains shown)
VH: EVQLVQSGPEVKKPGASVKVSCKASGFTFTDYVIGWVRQAPGQGLEWIGEIYLGSGTIYYTEKFKGRVTMTADTSTSTAYMELSSLRSEDTAVYYCARGSIFYFDYWGQGTLVTVSS
VL: DIQLTQSPSSLSASVGDRVTITCSASSSVSYMYWYQQKPGKAPKLLIYDTSTLASGVPSRFSGSGSGTDFTLTISSLQPEDFATYYCQQWNSYPYTFGQGTKLEIKR
Consider B2, for which, in assay [4], the Kd came to 0.892 nM.

B3: h11-4-1 (antibody, human IgG1, kappa, V domains shown)
VH: QVQLVQSGAEVKKPGASVKVSCKASGYTFTSYWINWVRQAPGQGLEWMGNIYPSNSYTNYNQKFKDRVTMTRDTSTSTVYMELSSLRSEDTAVYYCARYRSDGFAYWGQGTLVTVSS
VL: EIVLTQSPATLSLSPGERATLSCRASQNIGTSIHWYQQKPGQAPRLLIYFASESISGIPARFSGSGSGTDFTLTISSLEPEDFAVYYCQQSNSWPFTFGGGTKVEIKR
notes: also called CDR grafted antibody 11-4
Turning to B3, the Kd in assay [5] was 2.16 nM.

B4: h11-4-20 (antibody, human IgG1, kappa, name in Kabat numbering, V domains shown)
VH: B3 VH with Q1E, A97S, R98S, G103A
VL: B3 VL with H34A, Y49E
B4: the Kd in assay [5] came out at 0.21 nM.

B5: h11-4-14 (antibody, human IgG1, kappa, name in Kabat numbering, V domains shown)
VH: B3 VH with Q1E, A97S, R98S, D102E
VL: B3 VL with H34S, Y49E
B5: in assay [5], the Kd stood at 0.352 nM.

B6: h11-4-5 (antibody, human IgG1, kappa, name in Kabat numbering, V domains shown)
VH: B3 VH
VL: B3 VL with Y49E
B6: the Kd in assay [5] amounted to 1.08 nM.

B7: h11-4-7 (antibody, human IgG1, kappa, name in Kabat numbering, V domains shown)
VH: B3 VH with R98S
VL: B3 VL with Y49E
As to B7, in assay [5], the dissociation constant Kd was 0.803 nM.

B8: h11-4-9 (antibody, human IgG1, kappa, name in Kabat numbering, V domains shown)
VH: B3 VH with Q1E, A97S, R98S
VL: B3 VL with H34E, Y49E
Consider B8, for which the Kd in assay [5] came to 0.301 nM.

B9: h11-4-2 (antibody, human IgG1, kappa, V domains shown)
VH: B3 VH with A97S
VL: B3 VL
Turning to B9, the Kd in assay [5] was determined as 0.991 nM.

B10: h11-4-12 (antibody, human IgG1, kappa, name in Kabat numbering, V domains shown)
VH: B3 VH with Q1E, A97S, R98S, G103A
VL: B3 VL with H34E, Y49E
Regarding B10, in assay [5], the Kd was 0.282 nM.

B11: h11-4-17 (antibody, human IgG1, kappa, name in Kabat numbering, V domains shown)
VH: B3 VH with Q1E, A97S, R98S
VL: B3 VL with H34A, Y49E
In the case of B11, the Kd in assay [5] was 0.238 nM.

B12: h11-4-15 (antibody, human IgG1, kappa, name in Kabat numbering, V domains shown)
VH: B3 VH with Q1E, A97S, R98S, D102G
VL: B3 VL with H34S, Y49E
On to B12, for which, in assay [5], the Kd is 0.389 nM.

B13: h11-4-19 (antibody, human IgG1, kappa, name in Kabat numbering, V domains shown)
VH: B3 VH with Q1E, A97S, R98S, D102G
VL: B3 VL with H34A, Y49E
With B13, in assay [5], the Kd came to 0.254 nM.

B14: h11-4-13 (antibody, human IgG1, kappa, name in Kabat numbering, V domains shown)
VH: B3 VH with Q1E, A97S, R98S
VL: B3 VL with H34S, Y49E
Take B14: the Kd in assay [5] worked out at 0.211 nM.

B15: h11-4-10 (antibody, human IgG1, kappa, name in Kabat numbering, V domains shown)
VH: B3 VH with Q1E, A97S, R98S, D102E
VL: B3 VL with H34E, Y49E
B15: the Kd in assay [5] came to 0.351 nM.

B16: h11-4-16 (antibody, human IgG1, kappa, name in Kabat numbering, V domains shown)
VH: B3 VH with Q1E, A97S, R98S, G103A
VL: B3 VL with H34S, Y49E
For the molecule B16, in assay [5], the Kd was determined as 0.231 nM.

B17: h11-4-3 (antibody, human IgG1, kappa, V domains shown)
VH: B3 VH with R98S
VL: B3 VL
Regarding B17, in assay [5], the Kd is 0.868 nM.

B18: h11-4-8 (antibody, human IgG1, kappa, name in Kabat numbering, V domains shown)
VH: B3 VH with Q1E, A97S, R98S
VL: B3 VL with Y49E
B18: the Kd in assay [5] stood at 0.222 nM.

B19: h11-4-6 (antibody, human IgG1, kappa, name in Kabat numbering, V domains shown)
VH: B3 VH with A97S
VL: B3 VL with Y49E
On to B19, for which, in assay [5], the Kd came out at 0.952 nM.

B20: h11-4-4 (antibody, human IgG1, kappa, V domains shown)
VH: B3 VH with Q1E, A97S, R98S
VL: B3 VL
As for B20, the Kd in assay [5] stood at 0.811 nM.

B21: h11-4-11 (antibody, human IgG1, kappa, name in Kabat numbering, V domains shown)
VH: B3 VH with Q1E, A97S, R98S, D102G
VL: B3 VL with H34E, Y49E
Consider B21, for which the Kd in assay [5] is 0.375 nM.

B22: h11-4-18 (antibody, human IgG1, kappa, name in Kabat numbering, V domains shown)
VH: B3 VH with Q1E, A97S, R98S, D102E
VL: B3 VL with H34A, Y49E
As for B22, in assay [5], the Kd amounted to 0.394 nM.

B23: chimeric antibody ch17-1 (antibody, human IgG1, V domains shown)
VH: EVKLVESGGVLVKPGGSLKLSCAASGFTFSDSAMSWVRQTPEKRLEWVASISRGDDTYYPDSVKGRITISRDFARNILYLQMTSLRSEDTAMYYCTRDRFGFAYWGQGTLVTVSA
VL: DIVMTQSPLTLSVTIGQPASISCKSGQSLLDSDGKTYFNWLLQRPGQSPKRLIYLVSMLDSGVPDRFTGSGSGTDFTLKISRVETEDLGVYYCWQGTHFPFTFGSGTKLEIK
B23: the EC50 in assay [1] amounted to 0.328 nM; in assay [2], 2.92 nM.
